PMC5595889
pKd: −log10 of the molar value.

Target: mouse importin α1 lacking the N-terminal importin-β-binding domain (ΔIBB-importin α1) (mouse)
Assay: ITC

With influenza NLS2-K peptide (198-[…]-216) the pKd was 4.14.
